The values that follow come from article doi:10.1101/2022.07.24.501275.

Common to all, as to experiment: SPR
Background: In SPR one partner is held on a chip, and binding of the other changes the refractive index at the surface.

Experiment [1] has as its target 14A Fab G32R (mouse | human).
The target of experiment [2] is 16A Fab R32G (mouse | human).
Experiment [3] has as its target 16A Fab W34F (mouse | human).

What is called Kd is the constant that tells how readily two partners part at equilibrium. A higher Kd goes with lower affinity. Take MUC1 glycopeptide RPAPGS(Tn)TAPPAHG: the Kd in experiment [1] is 128 nM. Also, the KD(peptide)/KD(GalNAc-S) in experiment [2] came out at 1.9 fold.

On to MUC1 glycopeptide RPAPGST(Tn)APPAHG, for which the KD(peptide)/KD(GalNAc-T) in experiment [3] stood at 2.8 fold.
